Reference: the supplement of paper PMC10567573
± gives the standard deviation.

Experiment: protein stability index of a GFP-peptide fusion (GPS, HEK-293T) (PSI 1-6); higher = more stable
[1] = treatment: DMSO, c terminus: a fixed tail appended
[2] = treatment: MLN4924 1 uM, 8 h, c terminus: a fixed tail appended
[3] = treatment: DMSO, c terminus: native
[4] = treatment: MLN4924 1 uM, 8 h, c terminus: native
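Note: 24-mer peptide tiles fused after GFP, lentivirally expressed, FACS-sorted into six equal bins by GFP/DsRed ratio, decoded by Illumina sequencing, PSI is the read-weighted mean bin number.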

Sequence	protein stability index [1]	protein stability index [2]	protein stability index [3]	protein stability index [4]
EVDSGRQIEYEYKLAQALHEMREQ [LMNB1]	4.51 ± 0.23	4.43 ± 0.23	–	–
EVKIEEPVSMEMDNHMSDKDESCY [INTS3]	5.31 ± 0.37	5.37 ± 0.19	–	–
EVLSKALSQRTITVGVYEAAKLLN [GADD45A]	2.77 ± 0.45	2.56 ± 0.53	–	–
EVQDLLEGCELPDLPSSLLLPEDM [SMG5]	4.5 ± 0.13	4.67 ± 0.2	–	–
EVQGDQQAWFGFAGTPGYLSPEVL [CAMK2B]	3.07 ± 0.35	3.14 ± 0.21	–	–
EVRSKAEEVVSFVKKNVLVTGGFF [FUNDC2]	2.17 ± 0.37	2.25 ± 0.34	–	–
EVSQHIKMRMGGRVDFEEFVELIG [CABP4]	2.44 ± 0.12	3 ± 0.44	–	–
EYSPEEESEPPAPNIRNMAPNSLS [TRAF3IP2]	5.04 ± 0.36	5.07 ± 0.27	–	–
FADEKNILHIMVKVVKGHRPELPP [RIPK4]	2.3 ± 0.32	2.36 ± 0.36	–	–
FDECGITDDQLLALLPSLSHCSQL [PRAME]	3.31 ± 0.15	3.56 ± 0.19	–	–
FDTNAEGCILQWKKIYCRICMAQI [ZBED1]	2.39 ± 0.65	2.04 ± 0.079	–	–
FEKSRYETYIHLLAMKIKVGSDDL [PSD2]	2.53 ± 1	2.55 ± 0.61	–	–
FEQLPDDVAISANIADIEEKRGFT [NCF4]	5.03 ± 0.33	5.05 ± 0.21	–	–
FEWTDSPNTAVSVHVSESSDDDEE [ACBD3]	5.53 ± 0.22	5.56 ± 0.21	–	–
FFCEGVKIIFRVGLVLLKHALGSP [TBC1D10A]	1.98 ± 0.54	2.11 ± 0.36	–	–
FGHHHQRAWIPSENIQDITVNIHR [ZMYND11]	2.78 ± 0.37	2.69 ± 0.35	–	–
FHGTRQYKFDPKTKRILTLQKANS [MMP1]	2.38 ± 0.5	2.6 ± 0.54	–	–
FIMLLIGIVLPVFYLVYFKIQASG [LYSMD4]	2.31 ± 0.22	2.01 ± 0.54	–	–
FIPSSHNDRDFLTRIFTEDRFAQD [PPEF2]	2.58 ± 0.81	3.05 ± 0.64	–	–
FKCNYCGKSFRQRPSLVIHLRIHT [ZNF449]	3.15 ± 0.46	3.35 ± 0.24	–	–
FKSLFGSIGDIESCKLVRDKITGQ [ELAVL3]	2.87 ± 0.38	2.56 ± 0.15	–	–
FMRTDPVCQKLLLDAMNYHLMPFR [KLHL14]	2.25 ± 0.19	2.28 ± 0.3	–	–
FPTDAPYPTTLGKDRECQSQSLAL [ZNF8]	4.07 ± 0.15	4.05 ± 0.31	–	–

Sequence	protein stability index [1]	protein stability index [2]	protein stability index [3]	protein stability index [4]
FQIAANLSMERYALVFGVNTFIAL [SLC19A2]	3.2 ± 0.18	3.09 ± 0.17	–	–
FRCLFEAEITQIQSHISDMSVILS [KRT71]	1.94 ± 0.14	2.34 ± 0.37	–	–
FSLKTFKRKSEVERAVKRMRHLST [MATN2]	2.54 ± 0.51	2.82 ± 0.46	–	–
FSVKFEVQAPRWGNPRALSFVLSS [OAS1]	2.94 ± 0.27	3.01 ± 0.49	–	–
FTRSQTLIQNGGEIDCVDKDGNTP [ANKRD44]	4.74 ± 0.16	4.81 ± 0.21	–	–
FWHDTLTEQLWRIFAGVHDEKAKP [TLE6]	2.23 ± 0.41	2.41 ± 0.76	–	–
GAAFRDHQLLEPIRDFEARKCPVH [TRIM29]	3.73 ± 0.26	3.88 ± 0.17	–	–
GADKEILTTKGEMPVQLTSRREIR [ANKRD40]	4.83 ± 0.13	4.95 ± 0.19	–	–
GAEPGTYLTGTINGDPESVASLHW [ADAMTS4]	4.52 ± 0.87	3.67 ± 0.62	–	–
GAEPSAPGGGGSPGACPALGTKSC [RTN3]	5.36 ± 0.26	5.4 ± 0.26	–	–
GAGPPEPLRICPLHISVKEELDG [TRIM35]	–	–	4.21 ± 0.32	4.56 ± 0.14
GAIAVFVYASDKEWIRFDQSNVLC [PTGFR]	3.02 ± 0.34	2.87 ± 0.47	–	–
GARQISYSIPEELEKGSFVGNISK [PCDHGA10]	4.13 ± 0.19	4.23 ± 0.17	–	–
GAYDFPSPEWDTVTPEAKDLINKM [CAMK2D]	4.536 ± 0.038	4.07 ± 0.093	–	–
GDEFSLREHELLCRADHGLLLERA [ISL2]	4.06 ± 0.49	3.65 ± 0.35	–	–
GDTKRATPIEVLCENFPEMATYLR [CSNK1G3]	3.04 ± 0.33	2.97 ± 0.38	–	–
GERPRSEEDNELNLPNLAAAYSSI [GCH1]	4.71 ± 0.3	4.75 ± 0.075	–	–
GEVPVLIHGENIICEATQIIDYLE [GDAP1]	3.55 ± 0.29	3.6 ± 0.3	–	–
GFSLEDPQTHSNRIYRMIKLGLGI [HSP90AB1]	2.06 ± 0.42	2.29 ± 0.3	–	–
GFWRIDPQYAERLLSGAFKKRRLP [FOXJ1]	2.56 ± 0.12	2.4 ± 0.37	–	–
GGCGGPRAWSQCGGGGLRAWSQRS [CPOX]	2.73 ± 0.74	2.56 ± 0.46	–	–
GGEGVEVELLHNTSYTRQACLVSC [SCNN1D]	2.9 ± 0.2	2.55 ± 0.31	–	–
GGGGAPRGRYGPPSRRSENRVVVS [SRSF1]	4.36 ± 0.16	4.29 ± 0.12	–	–

Sequence	protein stability index [1]	protein stability index [2]	protein stability index [3]	protein stability index [4]
GGIRGRAMALTSSMNWGINLLISL [SLC2A12]	2.26 ± 0.7	2.54 ± 0.42	–	–
GGKRRRDDISVDSLDFTKKILHTA [PPP2R2C]	3.17 ± 0.21	3.77 ± 0.36	–	–
GGPFPLPYTAPGGYLDVGSKPMY [TBX6]	–	–	3.12 ± 0.43	3.43 ± 0.2
GGPQALVNIMRTYTYEKLLWTTSR [CTNNB1]	2.43 ± 0.6	2.5 ± 0.27	–	–
GGQESSGLNLGKKISVPRDVMLEE [MYOZ1]	5.07 ± 0.27	5.1 ± 0.23	–	–
GGTSSNNSEEEEDDDDEEEEVSEV [ANKRD17]	5.5 ± 0.23	5.54 ± 0.16	–	–
GHEEWVGSAYLFVESSLDKVVLSD [TRADD]	2.41 ± 0.45	2.45 ± 0.55	–	–
GHGADVLCLDLAPSETGNTFVSGG [GNB5]	4.24 ± 0.084	4.33 ± 0.4	–	–
GIVGLNNIKANDYANAVLQALSNV [USP39]	2.25 ± 0.42	2.25 ± 0.45	–	–
GKDVATQILEGELFDFDLEVKPVL [RSPH3]	3.79 ± 0.087	3.81 ± 0.46	–	–
GLAKCNGLSHSHDLSMDGLFGTIA [RIPK4]	2.47 ± 0.43	2.38 ± 0.13	–	–
GLAYDRKKVSKAAILARIKRTGDG [SCD]	3.27 ± 0.24	3.63 ± 0.35	–	–
GLGAGFGGGFAGGDGLLVGSEKVT [KRT16]	3.98 ± 0.11	4.081 ± 0.035	–	–
GLSQGLVDREKGLSAEPGWQAKRE [CHGA]	4.92 ± 0.29	4.84 ± 0.4	–	–
GLVDFRDVALALAALDGGRSLEEL [LPCAT4]	2.51 ± 0.34	3.17 ± 0.33	–	–
GPAGGLADLSSGSSGEDDDFKSCP [PWWP2B]	5.43 ± 0.22	5.45 ± 0.26	–	–
GPDDSLWDKHACPAYVGPEILSSR [TRIB3]	3.56 ± 0.25	3.54 ± 0.33	–	–
GPEDLSYQIYDVSGESNSAVSTED [LARP4]	5.39 ± 0.17	5.44 ± 0.13	–	–
GPESPPPPYSRLSPRDEYKPLDLS [SMAD6]	4.67 ± 0.15	4.78 ± 0.2	–	–
GPFGVNHGVELHSDVIEYAKQKLD [PCMTD2]	3.94 ± 0.6	4.28 ± 0.25	–	–
GPGIVGNVLVDPSARIGQNCSIGP [GMPPB]	3.74 ± 0.32	3.81 ± 0.21	–	–
GPHPKSKIENGYPLHAPEAYFPYF [CDC14A]	2.53 ± 0.21	2.69 ± 0.13	–	–
GPILQKDYVQLENQWETPPEDLQT [ZNF449]	4.94 ± 0.11	5 ± 0.28	–	–

Sequence	protein stability index [1]	protein stability index [2]	protein stability index [3]	protein stability index [4]
GPPGSPGRAGAVGTPGERGPPGPP [EMID1]	5.32 ± 0.84	4.81 ± 0.84	–	–
GPRRLVSCLSSQSSALSQSGGGST [SPACA3]	3.81 ± 0.22	4 ± 0.19	–	–
GQLYAMELQGFWMDIGQPKDFLTG [GMPPB]	2.01 ± 0.47	1.92 ± 0.13	–	–
GRKFLQKHLNASNPTEPATIIFTA [TOR1AIP2]	2.35 ± 0.36	2.13 ± 0.32	–	–
GRKKYDIDPRNGIPKLTPGDNPYM [SPATS1]	3.57 ± 0.18	3.71 ± 0.32	–	–
GRNDLQQWIEVDARRLTRFTGVIT [CPXM2]	2.43 ± 0.062	2.56 ± 0.12	–	–
GRRCKKCTEGPIDLVFVIDGSKSL [MATN2]	2.06 ± 0.35	2.41 ± 0.44	–	–
GRRLKSPQAPDPEEEENRDSQQPG [FANCE]	5.44 ± 0.25	5.67 ± 0.27	–	–
GRRYEAVKWMVVFAIGVCTGLVGL [CLCN6]	3.33 ± 0.1	3.2 ± 0.092	–	–
GSAGGLGSTLGGSSYSSCYSFGSG [KRT17]	3.29 ± 0.13	3.43 ± 0.33	–	–
GSILQFNPEVGIFVSIAQSEQESL [SMG5]	3.07 ± 0.38	2.92 ± 0.18	–	–
GSQPNSGLALESSSGLQDVTGPDN [NFE2L1]	5.45 ± 0.21	5.44 ± 0.3	–	–
GSVALGPVCPTVCPPGGIHQVTVN [KRT71]	3.55 ± 0.34	3.52 ± 0.28	–	–
GTEQAPYGMQTQNYPKGGLLDSMC [ETS2]	3.59 ± 0.17	3.84 ± 0.4	–	–
GVGGWRDYGVDPSQFSGTLMRTCE [PPTC7]	2.81 ± 0.36	3.28 ± 0.74	–	–
GVKISEQQAEKILKSMDKNGTMTI [SLC25A25]	3.73 ± 0.13	3.7 ± 0.22	–	–
GVRSREDAQGSEMVTCKSEFYHDE [GAN]	5.22 ± 0.12	5.08 ± 0.47	–	–
GWGDCVWLPYLYTLQGLYLVYHPV [DHCR7]	3.81 ± 0.74	3.25 ± 0.55	–	–
GYQLSDHTVGVLFNNGAHMSLLPD [PLK2]	3.08 ± 0.2	3.14 ± 0.081	–	–
HAFPVVTENRGNEKEFMKGNQLIS [CLCN6]	4.08 ± 0.078	4.12 ± 0.067	–	–
